± gives the uncertainty stated by the source.
Assay: protein stability index of a GFP-peptide fusion (yeast GPS) (PSI 1-4); higher = more stable; sorted into four equal gates, so the index is relative within each strain
Conditions: doa10∆
Outline: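 Mid-log yeast cultures in leucine-free medium, carrying a pooled plasmid library, were sorted into four equal gates by their GFP/Cherry fluorescence ratio. Each plasmid expressed Cherry along with GFP fused upstream of a tiled 17-residue yeast protein peptide. Plasmids recovered from each gate were PCR-amplified and Illumina-sequenced, with reads assigned to strains by barcodes. The protein stability index was obtained by summing each gate's read frequency weighted by its gate number.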

First: QQYVAAGDLRALDTVTN [FAS1]
Second: QRETSGMIVISMENYHL [SRB8]
The protein stability index of the first is higher: 2.88 ± 0.087 for the first, 2.16 ± 0.04 for the second.

With QRGKWNLKYLDNSNVMT [RGR1] the protein stability index was 2.37 ± 0.093.

Same assay, conditions: pdr5∆

Going from PTITLDDVYRPAAESKI [SNF5] to PTKTLTTKERKKSRLGN [PRP8], the protein stability index falls from 3.11 ± 0.071 to 2.26 ± 0.072.

Compared with PTLPTNHNKTKLLKSLK [PRP8], PTNCPLRQFKTCPVEVI [BRR2] is higher in protein stability index: 1.6 ± 0.056 for the first, 3.17 ± 0.09 for the second.

Going from PTQITQYTQRLSKLEKA [SRP68] to PTSPAYSPTSPSYSPTS [RPO21], the protein stability index rises from 2.08 ± 0.045 to 2.86 ± 0.045.

PTVSLTINLDRFMKGRR [RPC82] and PVRALIVQAKEPNLAAQ [ECM29] are within error of each other in protein stability index: 2.48 ± 0.06 for the first, 2.6 ± 0.08 for the second.

Compared with PVSCIIQNDEEYDTPAL [PRP8], PVSTASYRLLPQINILQ [RPC40] is lower in protein stability index: 2.73 ± 0.077 for the first, 1.66 ± 0.05 for the second.

Going from PVSVSRIARALKQEGAA [RPL18A] to PVVQVGIFIKILNDSLI [IRR1], the protein stability index falls from 2.83 ± 0.11 to 1.49 ± 0.046.

PVVRAPTVKYNRKVRAG [RPL13A] and PVYTAQWSATWIAMRRE [PRP8] are within error of each other in protein stability index: 2.15 ± 0.14 for the first, 1.96 ± 0.063 for the second.

First: PYLPKHYLVLLVAKFLY [YJR042W/NUP85]
Second: PYMPYYYYYHPMNAPTP [DSN1]
The protein stability index of the first is lower: 1.28 ± 0.06 for the first, 2.71 ± 0.043 for the second.

Going from PYNLNLFPNELYNVMGI [RPC31] to QALRVLRLKPGRKYTTL [RPL16B], the protein stability index falls from 2.52 ± 0.092 to 1.98 ± 0.051.

First: QANIQLYSIREDYELSP [PRE1]
Second: QANSNLTLLERKWVIFI [NUT1]
The protein stability index of the first is higher: 2.82 ± 0.093 for the first, 1.92 ± 0.044 for the second.

Going from QAPSELELQVAKTFIDL [RPS7B] to QAQLRIDDKTQNDELTM [DIS3], the protein stability index falls from 3.13 ± 0.04 to 2.6 ± 0.07.

Going from QDDADPMVSVMKMDKSP [RPT2] to QDEAELVEEKTPGLTFN [RPC82], the protein stability index rises from 1.27 ± 0.079 to 3.62 ± 0.29.

First: QDGGVTPYSNESGLVNA [RPO21]
Second: QDLPKINDKRANLMLVM [SRB4]
The protein stability index of the first is higher: 2.69 ± 0.065 for the first, 1.88 ± 0.068 for the second.

Compared with QDLSRNTLGKGQNCLDI [SNU114], QDNKKIYVHVRRSTPFS [ESC2] is lower in protein stability index: 3.28 ± 0.12 for the first, 2.49 ± 0.049 for the second.

Compared with QDVIKVLYQSNATHDED [SWP82], QEDELDEGTALSRLGLK [RPB10] is higher in protein stability index: 2.89 ± 0.04 for the first, 3.38 ± 0.086 for the second.

QEETVVEQTAEVTIEDA [RPS12] and QEIFDANVQRLKEYQSK [RPL13A] are within error of each other in protein stability index: 3.38 ± 0.13 for the first, 3.4 ± 0.15 for the second.

First: QEKNFQTGIFVYQNNIT [RPB5]
Second: QELKLTCVAKKGIAKEH [RPB3]
The protein stability index of the first is lower: 1.52 ± 0.064 for the first, 3.18 ± 0.13 for the second.

Compared with QENKNIDDENITKLNKE [SRB4], QEQGSFQHILRLLNTNV [RPS18A] is lower in protein stability index: 3.23 ± 0.068 for the first, 3.06 ± 0.045 for the second.

Compared with QEQITLYDHWDKYHEQW [SSN8], QESFINTMSAWVNMLLI [FAS2] is lower in protein stability index: 3.12 ± 0.12 for the first, 2.12 ± 0.085 for the second.

Going from QESSSTLSTHSTTTSVN [SIN4] to QETASPLSQDELISLRK [YIL149C/MLP2], the protein stability index falls from 3.12 ± 0.037 to 2.22 ± 0.074.

Compared with QETEGTNRHTLALETVL [SIR3], QFELLSRRWRQRKNIQS [BRR2] is lower in protein stability index: 2.57 ± 0.054 for the first, 1.92 ± 0.056 for the second.

First: QFEVSDDEKNDKQARKQ [SNF2]
Second: QFEWHQNSLLTNTHPNF [SNF2]
The protein stability index of the first is higher: 3.4 ± 0.12 for the first, 2.88 ± 0.08 for the second.

Compared with QFINLAGYKKLGLKFDD [QCR7], QFNAQGVRDINCVNDVL [POP1] is lower in protein stability index: 3.61 ± 0.14 for the first, 2.92 ± 0.17 for the second.

First: QFTLYDRELNEVINQME [SMC3]
Second: QFTSSLFKALKVILNER [RGR1]
The protein stability index of the first is higher: 3.09 ± 0.091 for the first, 2.4 ± 0.069 for the second.

QGGNNELGTAVGKLFRV [RPL30] and QGGVLPNIHQNLLPKKS [HTA1] are within error of each other in protein stability index: 2.83 ± 0.093 for the first, 2.75 ± 0.074 for the second.

First: QGPVKNTQLHGPSATDP [RGR1]
Second: QGSVTVGLRSNTHAVLV [PRE5]
The protein stability index of the first is higher: 3.06 ± 0.047 for the first, 1.43 ± 0.039 for the second.

QIEGPFLIIVPKSTLDN [ISW2] and QIELSCNERVPLSVATE [SRP72] are within error of each other in protein stability index: 2.12 ± 0.1 for the first, 2.21 ± 0.053 for the second.

Going from QILQGICKNCSAILLSE [RPO31] to QINIMPSLKAHFTEIKL [SIR3], the protein stability index falls from 2.23 ± 0.061 to 2.1 ± 0.054.

First: QISIIDIWSISKKRQAE [YML031W/NDC1]
Second: QIYGFEGLNQRNQVQTE [YGR119C/NUP57]
The protein stability index of the first is lower: 2.63 ± 0.052 for the first, 2.94 ± 0.22 for the second.

First: QKDQDGRIPLHWSVSFQ [NAS6]
Second: QKETQKVTKIWSKESNY [PRP28]
The protein stability index of the first is higher: 3.33 ± 0.079 for the first, 2.1 ± 0.041 for the second.

Compared with QKMAKAKKQNRPLPQWI [RPL39], QKQLPQKTRVKLLFDHD [ESC2] is lower in protein stability index: 3.07 ± 0.057 for the first, 2.93 ± 0.05 for the second.

First: QKSPKIRDPLTQTGLLQ [RPC82]
Second: QKVNAVDSTFQKVSENF [SMC3]
The protein stability index of the first is lower: 1.74 ± 0.041 for the first, 3.28 ± 0.079 for the second.

Compared with QKVQGESHIDSRNNTLN [SIR4], QKYNQIQKQIETIQADL [SMC2] is lower in protein stability index: 3.1 ± 0.05 for the first, 2.57 ± 0.042 for the second.

QLAVANEIIRSLSDEVM [SIR4] and QLDFTEFDEQYGTRPLV [SNF2] are within error of each other in protein stability index: 3 ± 0.081 for the first, 3.02 ± 0.047 for the second.

Going from QLKDMQTIEMITQIVEK [SRB8] to QLLIIEKEWENAIRIGE [SRP72], the protein stability index falls from 3.19 ± 0.075 to 1.69 ± 0.054.

QLLQRLNDMNTEISGLK [SMC3] and QLSQDEHSQVEQTCVKL [SRP72] are within error of each other in protein stability index: 3.38 ± 0.1 for the first, 3.24 ± 0.064 for the second.

QLVTREAQIKDWVENEL [FAS2] and QLYHLEQQKEELTDKLS [SMC1] are within error of each other in protein stability index: 3.19 ± 0.1 for the first, 3.11 ± 0.081 for the second.

Going from QMMSKGIGALFTQQELQ [RPC34] to QMSDKHATVVPPEEFSN [SRB7], the protein stability index falls from 3.26 ± 0.12 to 2.88 ± 0.056.

First: QMSLEANVVDITNDWEQ [YJR042W/NUP85]
Second: QMTWRQWLNNALKRSYG [POP8]
The protein stability index of the first is lower: 2.77 ± 0.064 for the first, 3.08 ± 0.14 for the second.

QNDELKFQGVLESEAQK [RPC34] and QNIKAPSVKRQKMAELE [PRP8] are within error of each other in protein stability index: 3.21 ± 0.11 for the first, 3.25 ± 0.07 for the second.

Compared with QNNKPSFVFGQAAAKPS [YLR335W/NUP2], QNNNTLGGGGLFGQSQQ [YGR119C/NUP57] is higher in protein stability index: 2.12 ± 0.066 for the first, 3.27 ± 0.29 for the second.

QNPMRDLKIEKLVLNIS [RPL11A] and QNSKEKNGLGLNFSTTA [MED2] are within error of each other in protein stability index: 3.09 ± 0.08 for the first, 3.13 ± 0.064 for the second.

QNYRLDGRSFDQFRDVE [RRP45] and QPASYHSVQETNKISPK [SSN2] are within error of each other in protein stability index: 3.26 ± 0.16 for the first, 3.1 ± 0.12 for the second.

QPIEKNGDKMPLKFKLG [YJR042W/NUP85] and QPKGVILYGPPGTGKTL [RPT6] are within error of each other in protein stability index: 2.98 ± 0.069 for the first, 2.91 ± 0.21 for the second.

First: QPPTNVQPTIGQLPQLP [SNF5]
Second: QPQPQPQQQQQHLQFNG [YDL088C/ASM4]
The protein stability index of the first is higher: 3.12 ± 0.063 for the first, 2.78 ± 0.038 for the second.

First: QQKLNTRMQRGHRADVG [REC8]
Second: QQLAYDLSISALLGDKI [RPN9]
The protein stability index of the first is higher: 2.85 ± 0.096 for the first, 2.67 ± 0.058 for the second.

First: QQLRTWKRQISYFLKLL [SRB8]
Second: QQPHYIQRTRERKKSIG [DSN1]
The protein stability index of the first is lower: 2.18 ± 0.066 for the first, 2.85 ± 0.047 for the second.

First: QQQLYGGNNNNNSTGIA [SWI1]
Second: QQQQQNTNNNDTIATSA [GAL11]
The protein stability index of the first is higher: 3.15 ± 0.066 for the first, 2.576 ± 0.02 for the second.

Compared with QQQQQQNGQQPPTTSNL [YML103C/NUP188], QQREAVRQLYKGKKYQP [RPL35A] is higher in protein stability index: 2.737 ± 0.022 for the first, 3.42 ± 0.14 for the second.

Going from QQTAKKLIPKLYRYRFD [ECM29] to QQYVAAGDLRALDTVTN [FAS1], the protein stability index rises from 2.35 ± 0.1 to 2.87 ± 0.081.

QRETSGMIVISMENYHL [SRB8] showed a protein stability index of 1.99 ± 0.04.

— the supplement of paper PMC9732359
